These results are taken from the RNAGym collection of RNA variant scans (doi:10.7554/elife.80360).

B1: Hairpin Ribozyme (parent)
chain: GUCCUCUUUCACGUGCGCGUGAAAGAGAGAAGUGAACCAGAGAAACACACGUUGUGGUAUAUUACCUGGUA

Variants of B1 are the subject of this data set. Briefly: self-cleavage, relative activity (ratio to wild type); higher = more cleavage; co-transcriptional.
With GUCCUCUUUCACGUGCGCGUGAAAGAGAGAAAUGAACCAGAGAAACACACGUUGUGUUAUAUUACCUGGUA [G32A G57U], the self-cleavage was 0.118.
Take GUCCUCUUUCACGUGCGCGUGAAAGAGAGAUGUGAACCAGAGAAACACACGUUGUGGUAUAUUACCUGUUA [A31U G69U]: the self-cleavage was 0.105.
For the variant GUCCUCUUUCACGUGCGCGUGAAAGAGAGAAAUGAACUAGAGAAACACACGUUGUGGUAUAUUACCUGGUA [G32A C38U], the self-cleavage is 0.0584.
Under GUCCUCUUUCACGUGCGCGUGAAAGAGAGAGGGGAACCAGAGAAACACACGUUGUGGUAUAUUACCUGGUA [A31G U33G] stands 0; under GUCCUCUUUCACGUGCGCGUGAAAGAGAGAUGUGAACCAGAGAAACACACGUUGUGGUAUAUUACGUGGUA [A31U C66G], 0.0934.
Under GUCCUCUUUCACGUGCGCGUGAAAGAGAGAAAUGAACCAGAGAAACACAUGUUGUGGUAUAUUACCUGGUA [G32A C50U] stands 0.101; under GUCCUCUUUCACGUGCGCGUGAAAGAGAGAAAUGAACCAAAGAAACACACGUUGUGGUAUAUUACCUGGUA [G32A G40A], 0.136; under GUCCUCUUUCACGUGCGCGUGAAAGAGAGAAAUGAACCAUAGAAACACACGUUGUGGUAUAUUACCUGGUA [G32A G40U], 0.0775.
To GUCCUCUUUCACGUGCGCGUGAAAGAGAGAUGUGAACCAGAGAAACACUCGUUGUGGUAUAUUACCUGGUA [A31U A49U] belongs 0.137; to GUCCUCUUUCACGUGCGCGUGAAAGAGAGAUGUGAACCAGAGAAACACACGUUAUGGUAUAUUACCUGGUA [A31U G54A], 0.151; to GUCCUCUUUCACGUGCGCGUGAAAGAGAGAUGUGAACCAGAGAAACACACGUUUUGGUAUAUUACCUGGUA [A31U G54U], 0.0633.
Take GUCCUCUUUCACGUGCGCGUGAAAGAGAGAAAUUAACCAGAGAAACACACGUUGUGGUAUAUUACCUGGUA [G32A G34U]: the self-cleavage was 0.798.
To GUCCUCUUUCACGUGCGCGUGAAAGAGAGAUGUGAACCAGAGAAACACAGGUUGUGGUAUAUUACCUGGUA [A31U C50G] belongs 0.152; to GUCCUCUUUCACGUGCGCGUGAAAGAGAGAUGUGAACCAGAGAAACACAUGUUGUGGUAUAUUACCUGGUA [A31U C50U], 0.24; to GUCCUCUUUCACGUGCGCGUGAAAGAGAGAUGUGAACCAGAGAAACACAAGUUGUGGUAUAUUACCUGGUA [A31U C50A], 0.113.
To GUCCUCUUUCACGUGCGCGUGAAAGAGAGAUGUGAACCAGAUAAACACACGUUGUGGUAUAUUACCUGGUA [A31U G42U] belongs 0.0854; to GUCCUCUUUCACGUGCGCGUGAAAGAGAGAAAUGAACCAGAGAAACACACGUUGUGGUAUAUUACGUGGUA [G32A C66G], 0.144.
To GUCCUCUUUCACGUGCGCGUGAAAGAGAGAAAUGAACCAGAGAAACACACGUUGUGGUAUAUUACAUGGUA [G32A C66A] belongs 0.147; to GUCCUCUUUCACGUGCGCGUGAAAGAGAGAAAUGAACCAGAGAAACAUACGUUGUGGUAUAUUACCUGGUA [G32A C48U], 0.154.
On to GUCCUCUUUCACGUGCGCGUGAAAGAGAGAUGUGAACCAGAGAAACACACGUUGUGGUAUAUUAACUGGUA [A31U C65A], for which the self-cleavage turned out to be 0.127.
To GUCCUCUUUCACGUGCGCGUGAAAGAGAGAUGUGAACAAGAGAAACACACGUUGUGGUAUAUUACCUGGUA [A31U C38A] belongs 0.0669; to GUCCUCUUUCACGUGCGCGUGAAAGAGAGAUUUGAACCAGAGAAACACACGUUGUGGUAUAUUACCUGGUA [A31U G32U], 0.125.
Under GUCCUCUUUCACGUGCGCGUGAAAGAGAGAAAUGAACCAGAGAAACACACGUUCUGGUAUAUUACCUGGUA [G32A G54C] stands 0.117; under GUCCUCUUUCACGUGCGCGUGAAAGAGAGAUGUGAACCAGUGAAACACACGUUGUGGUAUAUUACCUGGUA [A31U A41U], 0; under GUCCUCUUUCACGUGCGCGUGAAAGAGAGAGGUGAACCAGAGAAACACACGUUGGGGUAUAUUACCUGGUA [A31G U55G], 0.0654.
To GUCCUCUUUCACGUGCGCGUGAAAGAGAGAAAUGAACCAGAGAAACACACAUUGUGGUAUAUUACCUGGUA [G32A G51A] belongs 0.156.
In the case of GUCCUCUUUCACGUGCGCGUGAAAGAGAGAUGAGAACCAGAGAAACACACGUUGUGGUAUAUUACCUGGUA [A31U U33A], the self-cleavage amounted to 0.0513.
Under GUCCUCUUUCACGUGCGCGUGAAAGAGAGAUGUGGACCAGAGAAACACACGUUGUGGUAUAUUACCUGGUA [A31U A35G] stands 0.244; under GUCCUCUUUCACGUGCGCGUGAAAGAGAGAGGUGAACCAGAGAAACACACGUUGUGGUAUAUUACCGGGUA [A31G U67G], 0.337; under GUCCUCUUUCACGUGCGCGUGAAAGAGAGAAAUGAACCAGAGAAACACACGUUGUGGUAUAUUACCUGGUG [G32A A71G], 0.183.
To GUCCUCUUUCACGUGCGCGUGAAAGAGAGAUGUGAACCAGAGAAACACACAUUGUGGUAUAUUACCUGGUA [A31U G51A] belongs 0; to GUCCUCUUUCACGUGCGCGUGAAAGAGAGAUGUGAACCAGAGAACCACACGUUGUGGUAUAUUACCUGGUA [A31U A45C], 0.191; to GUCCUCUUUCACGUGCGCGUGAAAGAGAGAUGUGAACCAGAGAAACACACGUUGUGGUAUUUUACCUGGUA [A31U A61U], 0.138.
In the case of GUCCUCUUUCACGUGCGCGUGAAAGAGAGAUGUGAACCAGAGAAACACACGUUGUGGUAUCUUACCUGGUA [A31U A61C], the self-cleavage was determined as 0.111.
Under GUCCUCUUUCACGUGCGCGUGAAAGAGAGAAAUGAACCAGAGAAACACACGUUGUGGUAUAUUAUCUGGUA [G32A C65U] stands 0.174; under GUCCUCUUUCACGUGCGCGUGAAAGAGAGAGGUGAACCAGAGAAACACACGUAGUGGUAUAUUACCUGGUA [A31G U53A], 0.673.
On to GUCCUCUUUCACGUGCGCGUGAAAGAGAGAGGUGAACCAGAGAAACACACGUCGUGGUAUAUUACCUGGUA [A31G U53C], for which the self-cleavage turned out to be 0.846.
GUCCUCUUUCACGUGCGCGUGAAAGAGAGAUGUGAACCAGAGAAACACACGUUGUGGAAUAUUACCUGGUA [A31U U58A]: the self-cleavage worked out at 0.026.
